{"source": "FireProtDB (doi:10.1006/jmbi.1998.1906)", "parents": {"B1": {"name": "Lysozyme C, P61626 (parent)", "chain": "MKALIVLGLVLLSVTVQGKVFERCELARTLKRLGMDGYRGISLANWMCLAKWESGYNTRATNYNAGDRSTDYGIFQINSRYWCNDGKTPGAVNACHLSCSALLQDNIADAVACAKRVVRDPQGIRAWVAWRNRCQNRDVRQYVQGCGV"}}, "note": "Values joined by “and” are separate entries in the source; they are usually repeats but may differ in a detail not shown here. Equal entries are not always repeated.", "data": [{"variants_of": "B1", "conditions": "Homo sapiens; pH 2.66; Thermal; DSC; glycine 0.05 M; reversible: yes; structure 1LZ1; whole UniProt chain shown", "units": {"Tm": "°C", "unfolding enthalpy (calorimetric)": "kcal/mol", "unfolding enthalpy (van 't Hoff)": "kcal/mol"}, "values": [{"variant": "I41V", "Tm": 46.7, "unfolding enthalpy (calorimetric)": 76.3, "unfolding enthalpy (van 't Hoff)": 80.4}, {"variant": "I107V", "Tm": 45.5, "unfolding enthalpy (calorimetric)": 71.8, "unfolding enthalpy (van 't Hoff)": 76.6}]}, {"variants_of": "B1", "conditions": "Homo sapiens; pH 2.7; 49.2 °C; Thermal; DSC; glycine 0.05 M; reversible: yes; structure 1LZ1; whole UniProt chain shown", "units": {"ddG of mutation (higher = less stable)": "kcal/mol", "heat capacity change of unfolding": "kcal/mol/K"}, "values": [{"variant": "I41V", "ddG of mutation (higher = less stable)": 0.41, "heat capacity change of unfolding": 1.82}, {"variant": "V111A", "ddG of mutation (higher = less stable)": 1, "heat capacity change of unfolding": 1.53}, {"variant": "V20A", "ddG of mutation (higher = less stable)": 1.51, "heat capacity change of unfolding": 1.44}, {"variant": "I124V", "ddG of mutation (higher = less stable)": 0.98, "heat capacity change of unfolding": 1.72}, {"variant": "V139A", "ddG of mutation (higher = less stable)": 1.75, "heat capacity change of unfolding": 1.37}, {"variant": "I107V", "ddG of mutation (higher = less stable)": 0.35, "heat capacity change of unfolding": 1.84}, {"variant": "V118A", "ddG of mutation (higher = less stable)": 0.57, "heat capacity change of unfolding": 1.84}]}, {"variants_of": "B1", "conditions": "Homo sapiens; pH 2.7; Thermal; DSC; glycine 0.05 M; reversible: yes; structure 1LZ1; whole UniProt chain shown", "units": {"heat capacity change of unfolding": "kcal/mol/K", "unfolding enthalpy (van 't Hoff)": "kcal/mol"}, "values": [{"variant": "I41V", "Tm": "47.6 °C", "change of melting temperature, mutant - wild type (higher = more stable)": "-1.6 °C", "heat capacity change of unfolding": 1.82, "unfolding enthalpy (calorimetric)": "80.9 kcal/mol"}, {"variant": "V111A", "Tm": "44.8 °C and 45.2 °C", "change of melting temperature, mutant - wild type (higher = more stable)": "-4.4 °C and -4 °C", "heat capacity change of unfolding": 1.53, "unfolding enthalpy (calorimetric)": "76.3 kcal/mol and 71.1 kcal/mol", "unfolding enthalpy (van 't Hoff)": 77.3}, {"variant": "V20A", "Tm": "41.3 °C", "change of melting temperature, mutant - wild type (higher = more stable)": "-7.9 °C", "heat capacity change of unfolding": 1.44, "unfolding enthalpy (calorimetric)": "65.5 kcal/mol"}, {"variant": "I124V", "Tm": "44.5 °C and 43.6 °C", "change of melting temperature, mutant - wild type (higher = more stable)": "-4.7 °C and -5.6 °C", "heat capacity change of unfolding": 1.72, "unfolding enthalpy (calorimetric)": "70.3 kcal/mol and 59.8 kcal/mol", "unfolding enthalpy (van 't Hoff)": 66.7}, {"variant": "V139A", "Tm": "39.9 °C", "change of melting temperature, mutant - wild type (higher = more stable)": "-9.3 °C", "heat capacity change of unfolding": 1.37, "unfolding enthalpy (calorimetric)": "65.3 kcal/mol"}, {"variant": "I107V", "Tm": "46.5 °C", "change of melting temperature, mutant - wild type (higher = more stable)": "-2.7 °C", "heat capacity change of unfolding": 1.84, "unfolding enthalpy (calorimetric)": "78.5 kcal/mol"}, {"variant": "V118A", "Tm": "46.6 °C", "change of melting temperature, mutant - wild type (higher = more stable)": "-2.6 °C", "heat capacity change of unfolding": 1.84, "unfolding enthalpy (calorimetric)": "72.2 kcal/mol"}]}, {"variants_of": "B1", "conditions": "Homo sapiens; pH 2.78; Thermal; DSC; glycine 0.05 M; reversible: yes; structure 1LZ1; whole UniProt chain shown", "units": {"Tm": "°C", "unfolding enthalpy (calorimetric)": "kcal/mol", "unfolding enthalpy (van 't Hoff)": "kcal/mol"}, "values": [{"variant": "I41V", "Tm": 49.6, "unfolding enthalpy (calorimetric)": 83.5, "unfolding enthalpy (van 't Hoff)": 85.9}, {"variant": "I107V", "Tm": 48.4, "unfolding enthalpy (calorimetric)": 77.3, "unfolding enthalpy (van 't Hoff)": 82.3}]}, {"variants_of": "B1", "conditions": "Homo sapiens; pH 2.96; Thermal; DSC; glycine 0.05 M; reversible: yes; structure 1LZ1; whole UniProt chain shown", "units": {"Tm": "°C", "unfolding enthalpy (calorimetric)": "kcal/mol", "unfolding enthalpy (van 't Hoff)": "kcal/mol"}, "values": [{"variant": "I41V", "Tm": 52.3, "unfolding enthalpy (calorimetric)": 85.4, "unfolding enthalpy (van 't Hoff)": 89.2}]}, {"variants_of": "B1", "conditions": "Homo sapiens; pH 3.09; Thermal; DSC; glycine 0.05 M; reversible: yes; structure 1LZ1; whole UniProt chain shown", "units": {"Tm": "°C", "unfolding enthalpy (calorimetric)": "kcal/mol", "unfolding enthalpy (van 't Hoff)": "kcal/mol"}, "values": [{"variant": "I41V", "Tm": 55, "unfolding enthalpy (calorimetric)": 91.1, "unfolding enthalpy (van 't Hoff)": 95}]}, {"variants_of": "B1", "conditions": "Homo sapiens; pH 2.5; Thermal; DSC; glycine 0.05 M; reversible: yes; structure 1LZ1; whole UniProt chain shown", "units": {"Tm": "°C", "unfolding enthalpy (calorimetric)": "kcal/mol", "unfolding enthalpy (van 't Hoff)": "kcal/mol"}, "values": [{"variant": "V111A", "Tm": 41.2, "unfolding enthalpy (calorimetric)": 64.1, "unfolding enthalpy (van 't Hoff)": 71.1}]}, {"variants_of": "B1", "conditions": "Homo sapiens; pH 3.02; Thermal; DSC; glycine 0.05 M; reversible: yes; structure 1LZ1; whole UniProt chain shown", "units": {"Tm": "°C", "unfolding enthalpy (calorimetric)": "kcal/mol", "unfolding enthalpy (van 't Hoff)": "kcal/mol"}, "values": [{"variant": "V111A", "Tm": 50.1, "unfolding enthalpy (calorimetric)": 77.5, "unfolding enthalpy (van 't Hoff)": 83}, {"variant": "V20A", "Tm": 47.3, "unfolding enthalpy (calorimetric)": 62, "unfolding enthalpy (van 't Hoff)": 67.5}, {"variant": "V118A", "Tm": 52, "unfolding enthalpy (calorimetric)": 77.8, "unfolding enthalpy (van 't Hoff)": 81.6}]}, {"variants_of": "B1", "conditions": "Homo sapiens; pH 3.16; Thermal; DSC; glycine 0.05 M; reversible: yes; structure 1LZ1; whole UniProt chain shown", "units": {"Tm": "°C", "unfolding enthalpy (calorimetric)": "kcal/mol", "unfolding enthalpy (van 't Hoff)": "kcal/mol"}, "values": [{"variant": "V111A", "Tm": 52.5, "unfolding enthalpy (calorimetric)": 81.8, "unfolding enthalpy (van 't Hoff)": 86.4}]}, {"variants_of": "B1", "conditions": "Homo sapiens; pH 2.71; Thermal; DSC; glycine 0.05 M; reversible: yes; structure 1LZ1; whole UniProt chain shown", "units": {"Tm": "°C", "unfolding enthalpy (calorimetric)": "kcal/mol", "unfolding enthalpy (van 't Hoff)": "kcal/mol"}, "values": [{"variant": "V20A", "Tm": 41.4, "unfolding enthalpy (calorimetric)": 54.5, "unfolding enthalpy (van 't Hoff)": 60.3}]}, {"variants_of": "B1", "conditions": "Homo sapiens; pH 3.1; Thermal; DSC; glycine 0.05 M; reversible: yes; structure 1LZ1; whole UniProt chain shown", "units": {"Tm": "°C", "unfolding enthalpy (calorimetric)": "kcal/mol", "unfolding enthalpy (van 't Hoff)": "kcal/mol"}, "values": [{"variant": "V20A", "Tm": 48.3, "unfolding enthalpy (calorimetric)": 65.1, "unfolding enthalpy (van 't Hoff)": 70.6}, {"variant": "I124V", "Tm": 51.3, "unfolding enthalpy (calorimetric)": 73.7, "unfolding enthalpy (van 't Hoff)": 78}, {"variant": "I107V", "Tm": 53.8, "unfolding enthalpy (calorimetric)": 87.3, "unfolding enthalpy (van 't Hoff)": 88.3}]}, {"variants_of": "B1", "conditions": "Homo sapiens; pH 3; Thermal; DSC; glycine 0.05 M; reversible: yes; structure 1LZ1; whole UniProt chain shown", "units": {"Tm": "°C", "unfolding enthalpy (calorimetric)": "kcal/mol", "unfolding enthalpy (van 't Hoff)": "kcal/mol"}, "values": [{"variant": "I124V", "Tm": 49.5, "unfolding enthalpy (calorimetric)": 70.6, "unfolding enthalpy (van 't Hoff)": 75.6}, {"variant": "V139A", "Tm": 47, "unfolding enthalpy (calorimetric)": 61.5, "unfolding enthalpy (van 't Hoff)": 67.5}]}, {"variants_of": "B1", "conditions": "Homo sapiens; pH 2.72; Thermal; DSC; glycine 0.05 M; reversible: yes; structure 1LZ1; whole UniProt chain shown", "units": {"Tm": "°C", "unfolding enthalpy (calorimetric)": "kcal/mol", "unfolding enthalpy (van 't Hoff)": "kcal/mol"}, "values": [{"variant": "V139A", "Tm": 40.3, "unfolding enthalpy (calorimetric)": 53.6, "unfolding enthalpy (van 't Hoff)": 56.9}, {"variant": "V118A", "Tm": 46.8, "unfolding enthalpy (calorimetric)": 68.9, "unfolding enthalpy (van 't Hoff)": 73.4}]}, {"variants_of": "B1", "conditions": "Homo sapiens; pH 2.86; Thermal; DSC; glycine 0.05 M; reversible: yes; structure 1LZ1; whole UniProt chain shown", "units": {"Tm": "°C", "unfolding enthalpy (calorimetric)": "kcal/mol", "unfolding enthalpy (van 't Hoff)": "kcal/mol"}, "values": [{"variant": "V139A", "Tm": 43.6, "unfolding enthalpy (calorimetric)": 57.9, "unfolding enthalpy (van 't Hoff)": 62.7}]}, {"variants_of": "B1", "conditions": "Homo sapiens; pH 3.14; Thermal; DSC; glycine 0.05 M; reversible: yes; structure 1LZ1; whole UniProt chain shown", "units": {"Tm": "°C", "change of melting temperature, mutant - wild type (higher = more stable)": "°C", "unfolding enthalpy (calorimetric)": "kcal/mol", "unfolding enthalpy (van 't Hoff)": "kcal/mol"}, "values": [{"variant": "V139A", "Tm": 50.1, "change of melting temperature, mutant - wild type (higher = more stable)": -7.7, "unfolding enthalpy (calorimetric)": 67.2, "unfolding enthalpy (van 't Hoff)": 72.5}]}, {"variants_of": "B1", "conditions": "Homo sapiens; pH 2.49; Thermal; DSC; glycine 0.05 M; reversible: yes; structure 1LZ1; whole UniProt chain shown", "units": {"Tm": "°C", "unfolding enthalpy (calorimetric)": "kcal/mol", "unfolding enthalpy (van 't Hoff)": "kcal/mol"}, "values": [{"variant": "I107V", "Tm": 42.5, "unfolding enthalpy (calorimetric)": 66, "unfolding enthalpy (van 't Hoff)": 72}]}, {"variants_of": "B1", "conditions": "Homo sapiens; pH 2.51; Thermal; DSC; glycine 0.05 M; reversible: yes; structure 1LZ1; whole UniProt chain shown", "units": {"Tm": "°C", "unfolding enthalpy (calorimetric)": "kcal/mol", "unfolding enthalpy (van 't Hoff)": "kcal/mol"}, "values": [{"variant": "V118A", "Tm": 43.5, "unfolding enthalpy (calorimetric)": 61.5, "unfolding enthalpy (van 't Hoff)": 70.1}]}, {"variants_of": "B1", "conditions": "Homo sapiens; pH 2.9; Thermal; DSC; glycine 0.05 M; reversible: yes; structure 1LZ1; whole UniProt chain shown", "units": {"Tm": "°C", "unfolding enthalpy (calorimetric)": "kcal/mol", "unfolding enthalpy (van 't Hoff)": "kcal/mol"}, "values": [{"variant": "V118A", "Tm": 49.9, "unfolding enthalpy (calorimetric)": 72.5, "unfolding enthalpy (van 't Hoff)": 79.2}]}, {"variants_of": "B1", "conditions": "Homo sapiens; pH 3.15; Thermal; DSC; glycine 0.05 M; reversible: yes; structure 1LZ1; whole UniProt chain shown", "units": {"Tm": "°C", "unfolding enthalpy (calorimetric)": "kcal/mol", "unfolding enthalpy (van 't Hoff)": "kcal/mol"}, "values": [{"variant": "V118A", "Tm": 54.4, "unfolding enthalpy (calorimetric)": 81.8, "unfolding enthalpy (van 't Hoff)": 84.7}]}]}
